{"source": "patent US20240108748", "proteins": {"B1": {"name": "Human plasmin (protein)", "chain": "KVYLSECKTGNGKNYRGTMSKTKNGITCQKWSSTSPHRPRFSPATHPSEGLEENYCRNPDNDPQGPWCYTTDPEKRYDYCDILECEEECMHCSGENYDGKISKTMSGLECQAWDSQSPHAHGYIPSKFPNKNLKKNYCRNPDRELRPWCFTTDPNKRWELCDIPRCTTPPPSSGPTYQCLKGTGENYRGNVAVTVSGHTCQHWSAQTPHTHNRTPENFPCKNLDENYCRNPDGKRAPWCHTTNSQVRWEYCKIPSCDSSPVSTEQLAPTAPPELTPVVQDCYHGDGQSYRGTSSTTTTGKKCQSWSSMTPHRHQKTPENYPNAGLTMNYCRNPDADKGPWCFTTDPSVRWEYCNLKKCSGTEASVVAPPPVVLLPDVETPSEEDCMFGNGKGYRGKRATTVTGTPCQDWAAQEPHRHSIFTPETNPRAGLEKNYCRNPDGDVGGPWCYTTNPRKLYDYCDVPQCAAPSFDCGKPQVEPKKCPGRVVGGCVAHPHSWPWQVSLRTRFGMHFCGGTLISPEWVLTAAHCLEKSPRPSSYKVILGAHQEVNLEPHVQEIEVSRLFLEPTRKDIALLKLSSPAVITDKVIPACLPSPNYVVADRTECFITGWGETQGTFGAGLLKEAQLPVIENKVCNRYEFLNGRVQSTELCAGHLAGGTDSCQGDSGGPLVCFEKDKYILQGVTSWGLGCARPNKPGVYVRVSRFVTWIEGVMRNN"}}, "target": "T1, {Pra}KTFKC plasmin-cleavable peptide, as Cholesterol-KTFKC-PEG2000 (not fully specified)", "T1 chain": "KTFKC", "data": [{"protein": "B1", "values": [{"measurement": "Annexin V staining of immobilized PPNs after plasmin incubation (phosphatidylserine exposure after removal of the PEG cloak)", "result": "PPNs incubated with ≥50 nM human plasmin had increased Annexin V staining"}]}]}
